Test results: paper doi:10.1101/2022.09.05.506711

Target: Francisella tularensis class II fructose-1,6-bisphosphatase (Francisella tularensis)
Test: crystal structure

Francisella tularensis class II fructose-1,6-bisphosphatase (enzyme)
stoichiometry N: 4
